The numbers were not newly measured in article PMC9038201, which cites them from elsewhere.

As usually defined, the Kd is the constant that tells how readily two partners part at equilibrium.

The target of the data set is ubiquitin (Homo sapiens) (UniProt P0CG47).

For PLpro (from UniProt P0DTD1), the Kd was 120 µM.
